From FireProtDB (doi:10.1002/cbic.201402128)
Where “and” joins values, the source holds several entries; their conditions need not be identical. Equal entries are not always repeated.

B1: Haloalkane dehalogenase, D4Z2G1 (parent)
chain: MSLGAKPFGEKKFIEIKGRRMAYIDEGTGDPILFQHGNPTSSYLWRNIMPHCAGLGRLIACDLIGMGDSDKLDPSGPERYAYAEHRDYLDALWEALDLGDRVVLVVHDWGSALGFDWARRHRERVQGIAYMEAIAMPIEWADFPEQDRDLFQAFRSQAGEELVLQDNVFVEQVLPGLILRPLSEAEMAAYREPFLAAGEARRPTLSWPRQIPIAGTPADVVAIARDYAGWLSESPIPKLFINAEPGALTTGRMRDFCRTWPNQTEITVAGAHFIQEDSPDEIGAAIAAFVRRLRPA

Variants of: B1
Conditions: Sphingobium indicum (strain DSM 16413 / CCM 7287 / MTCC 6362 / UT26 / NBRC 101211 / UT26S); pH 7.5; Thermal; fluorescence; Na-Hepes 50 mM; reversible: no; structure 1MJ5; whole UniProt chain shown

Variant	Tm	change of melting temperature, mutant - wild type (higher = more stable)
A197P	52.5 °C	1.5 °C
S183C E186C	47 °C	-4 °C
S41Q	49 °C	-2 °C
A185P	50.5 °C	-0.5 °C
E123S	51 °C	0 °C
T264Q	50 °C	-1 °C
T264L	50.5 °C	-0.5 °C
V268C S278C	48.5 °C and 46 °C	-2.5 °C and -3 °C
D255Q	50.5 °C	-0.5 °C
D255K	50.5 °C	-0.5 °C
D255A	51.5 °C	0.5 °C
R101H	51 °C	0 °C
V105I	50 °C	-1 °C
S42A	49.5 °C	-1.5 °C
L248W	62 °C	11 °C
L248F	61.5 °C	10.5 °C
R254L	49.5 °C	-1.5 °C
G229A	51.5 °C	0.5 °C
G229Q	54 °C	3 °C
G229S	52 °C	1 °C
G229R	51.5 °C	0.5 °C
G229E	51.5 °C	0.5 °C
G229T	51.5 °C	0.5 °C
G229N	51.5 °C	0.5 °C
G229D	51.5 °C	0.5 °C
S75C R79C	45.5 °C and 44 °C	-5.5 °C and -5 °C

Variant	Tm	change of melting temperature, mutant - wild type (higher = more stable)
A133V	51 °C	0 °C
A296R	50.5 °C	-0.5 °C
A296H	50 °C	-1 °C
Q152L	61.5 °C	10.5 °C
A200P	50.5 °C	-0.5 °C
V106L	50.5 °C	-0.5 °C
D147Y	65 °C	14 °C
D147L	65 °C	14 °C
D147M	66 °C	15 °C
D147H	59.5 °C	8.5 °C
Q172K	61.5 °C	10.5 °C
R225L	51.5 °C	0.5 °C
E78H	51 °C	0 °C
E233S	51.5 °C	0.5 °C
E233Q	51.5 °C	0.5 °C
E233T	51.5 °C	0.5 °C
E233H	51.5 °C	0.5 °C
V106C G114C	50 °C	1 °C
E139T	60.5 °C	9.5 °C
E139Q	58.5 °C	7.5 °C
E139K	58.5 °C	7.5 °C
E139H	61.5 °C	10.5 °C
D226K	50.5 °C	-0.5 °C
E244V	50.5 °C	-0.5 °C
E244I	50 °C	-1 °C
I48C G283C	49 °C	-2 °C

Variant	Tm	change of melting temperature, mutant - wild type (higher = more stable)
A95H	50.5 °C	-0.5 °C
A247F	67.5 °C	16.5 °C
T249M	60.5 °C	9.5 °C
T249L	62.5 °C	11.5 °C
T249V	60 °C	9 °C
A218E	51 °C	0 °C
A218P	51.5 °C	0.5 °C
G176N	51 °C	0 °C
G176A	51.5 °C	0.5 °C
A269P	50 °C	-1 °C
S42C A60C	47.5 °C	-1.5 °C
D100T	51 °C	0 °C
S183D	50 °C	-1 °C
R86L	49 °C	-2 °C
D149Q	62 °C	11 °C
D149K	67.5 °C	16.5 °C
Q275P	48 °C	-3 °C
H51C G283C	48.5 °C and 46 °C	-2.5 °C and -3 °C
A189Y	51.5 °C	0.5 °C
A189F	51.5 °C	0.5 °C
V220M	61 °C	10 °C
A81N	51 °C	0 °C
A81K	52 °C	1 °C
A81E	48 °C	-3 °C
A81P	48 °C	-3 °C
A83L	51.5 °C	0.5 °C

Variant	Tm	change of melting temperature, mutant - wild type (higher = more stable)
A83N	50 °C	-1 °C
D166N	53 °C	2 °C
D166K	53.5 °C	2.5 °C
D97R	51 °C	0 °C
D97K	50.5 °C	-0.5 °C
D97N	50 °C	-1 °C
A196C A200C	48.5 °C and 46 °C	-2.5 °C and -3 °C and -0.5 °C
A271I	60.5 °C	9.5 °C
A271V	62 °C	11 °C
D219Q	50 °C	-1 °C
D68N	50.5 °C	-0.5 °C
D68H	52 °C	1 °C
D68L	49.5 °C	-1.5 °C
A53L	52 °C	1 °C
A53K	51 °C	0 °C
D87K	50 °C	-1 °C
D87L	51.5 °C	0.5 °C
C61P	50.5 °C	-0.5 °C
A153K	61 °C	10 °C
V103I	51 °C	0 °C
S75C E199C	48.5 °C	-2.5 °C
C257A	48.5 °C	-2.5 °C
E192R	53.5 °C	2.5 °C
E192K	54 °C	3 °C
E192L	51.5 °C	0.5 °C
A129V	50 °C	-1 °C
